The source of these data is patent publication US10472401B2, “Peptides and combination of peptides for use in immunotherapy against ovarian cancer and other cancers” (immatics biotechnologies GmbH, priority 2015, dated 2019).

This assay has as its target HLA-A*02:01 (Homo sapiens, UniProt P04439, D140Y/D185E/D98H/E176V/E277Q/G131W/G231S/I119V/I121R/I166T/I218V/L300P/L318F/N151K/N90K/P208A/P217A/Q86G/Q94H/R138H/R169H/T345S). Nature of the assay: MHC binding assay (UV-ligand exchange, ELISA of stabilized MHC complexes). The conditions noted are these: MHC class I binding score; binding to HLA-A*02:01 ranged by peptide exchange yield (UV-ligand exchange, ELISA). An outline of the steps:
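Peptide-MHC complexes made by UV-ligand exchange, cleaving a UV-sensitive placeholder peptide and replacing it with the test peptide. Exchange yield measured by ELISA: streptavidin-captured monomers (diluted 100-fold, 1 h, 37 °C) detected with HRP anti-β2m and TMB, absorbance at 450 nm.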
In the case of “256 (FLPPEHTIVYI; listed as Homo sapiens) [compound 256]”, the Peptide exchange entry was “″+++″ (≥50% = +++)”.

For “257 (SIFSAFLSV; listed as Homo sapiens) [compound 257]”, the Peptide exchange result is given as “″+++″ (≥50% = +++)”.

For “258 (ELAERVPAI; listed as Homo sapiens) [compound 258]”, the Peptide exchange result was “″++″ (≥20% = ++)”.

Consider “261 (YVLEFLEEI; listed as Homo sapiens) [compound 261]”, for which the Peptide exchange entry is “″++″ (≥20% = ++)”.

As to “262 (LLWGDLIWL; listed as Homo sapiens) [compound 262]”, the Peptide exchange entry was “″+++″ (≥50% = +++)”.

As to “263 (LLVSNLDFGV; listed as Homo sapiens) [compound 263]”, the Peptide exchange result is given as “″+++″ (≥50% = +++)”.

For the substance “264 (SLQEQLHSV; listed as Homo sapiens) [compound 264]”, the Peptide exchange entry is recorded as “″+++″ (≥50% = +++)”.

Regarding “265 (LLFGGTKTV; listed as Homo sapiens) [compound 265]”, the Peptide exchange result is reported as “″++″ (≥20% = ++)”.

Turning to “266 (KITDTLIHL; listed as Homo sapiens) [compound 266]”, the Peptide exchange entry is recorded as “″+++″ (≥50% = +++)”.

“267 (ALQDFLLSV; listed as Homo sapiens) [compound 267]”: the Peptide exchange result is given as “″+++″ (≥50% = +++)”.

Take “269 (RVLEVGALQAV; listed as Homo sapiens) [compound 269]”: the Peptide exchange entry is “″++″ (≥20% = ++)”.

For “270 (LLLDEEGTFSL; listed as Homo sapiens) [compound 270]”, the Peptide exchange result was “″++″ (≥20% = ++)”.

With “271 (LVYPLELYPA; listed as Homo sapiens) [compound 271]”, the Peptide exchange entry is “″+++″ (≥50% = +++)”.

For “272 (ALGNTVPAV; listed as Homo sapiens) [compound 272]”, the Peptide exchange entry is “″+++″ (≥50% = +++)”.

Take “273 (NLFQSVREV; listed as Homo sapiens) [compound 273]”: the Peptide exchange entry is “″++″ (≥20% = ++)”.

In the case of “274 (SLLFSLFEA; listed as Homo sapiens) [compound 274]”, the Peptide exchange entry is given as “″++″ (≥20% = ++)”.

For “275 (YLVYILNEL; listed as Homo sapiens) [compound 275]”, the Peptide exchange result is “″++″ (≥20% = ++)”.

For “276 (ALFTFSPLTV; listed as Homo sapiens) [compound 276]”, the Peptide exchange entry is given as “″+++″ (≥50% = +++)”.

For “277 (LLPPLESLATV; listed as Homo sapiens) [compound 277]”, the Peptide exchange result is recorded as “″++″ (≥20% = ++)”.

Turning to “278 (QLLDVVLTI; listed as Homo sapiens) [compound 278]”, the Peptide exchange entry is “″++″ (≥20% = ++)”.

Turning to “279 (ALWGGTQPLL; listed as Homo sapiens) [compound 279]”, the Peptide exchange result was “″++″ (≥20% = ++)”.

As to “280 (VLPDPEVLEAV; listed as Homo sapiens) [compound 280]”, the Peptide exchange result is “″+++″ (≥50% = +++)”.

Turning to “281 (ILRESTEEL; listed as Homo sapiens) [compound 281]”, the Peptide exchange result is listed as “″+++″ (≥50% = +++)”.

Take “282 (LLADVVPTT; listed as Homo sapiens) [compound 282]”: the Peptide exchange entry was “″+++″ (≥50% = +++)”.

With “284 (ILLSQTTGV; listed as Homo sapiens) [compound 284]”, the Peptide exchange result is reported as “″+++″ (≥50% = +++)”.

Turning to “285 (QLLHVGVTV; listed as Homo sapiens) [compound 285]”, the Peptide exchange entry is “″+++″ (≥50% = +++)”.

As to “286 (YLFPGIPEL; listed as Homo sapiens) [compound 286]”, the Peptide exchange result is “″+++″ (≥50% = +++)”.

For “287 (FLNEFFLNV; listed as Homo sapiens) [compound 287]”, the Peptide exchange result is recorded as “″+++″ (≥50% = +++)”.

Regarding “288 (NLINEINGV; listed as Homo sapiens) [compound 288]”, the Peptide exchange result is “″+++″ (≥50% = +++)”.

Take “289 (VLLEIEDLQV; listed as Homo sapiens) [compound 289]”: the Peptide exchange result was “″++++″ (≥75% = ++++)”.

As to “295 (VLDRESPNV; listed as Homo sapiens) [compound 295]”, the Peptide exchange result is recorded as “″+++″ (≥50% = +++)”.

In the case of “296 (FMEGAIIYV; listed as Homo sapiens) [compound 296]”, the Peptide exchange result is on record as “″+++″ (≥50% = +++)”.

For “297 (VLADIELAQA; listed as Homo sapiens) [compound 297]”, the Peptide exchange entry is “″+++″ (≥50% = +++)”.

As to “298 (VMITKLVEV; listed as Homo sapiens) [compound 298]”, the Peptide exchange entry was “″+++″ (≥50% = +++)”.

On to “299 (YLLETSGNL; listed as Homo sapiens) [compound 299]”, for which the Peptide exchange result is “″+++″ (≥50% = +++)”.

Regarding “300 (ALLGQTFSL; listed as Homo sapiens) [compound 300]”, the Peptide exchange result was “″+++″ (≥50% = +++)”.

For “301 (FLVEDLVDSL; listed as Homo sapiens) [compound 301]”, the Peptide exchange result was “″+++″ (≥50% = +++)”.

For the substance “302 (ALLQEGEVYSA; listed as Homo sapiens) [compound 302]”, the Peptide exchange result is recorded as “″+++″ (≥50% = +++)”.

For the substance “303 (AILPQLFMV; listed as Homo sapiens) [compound 303]”, the Peptide exchange result is listed as “″++++″ (≥75% = ++++)”.

In the case of “304 (MTLGQIYYL; listed as Homo sapiens) [compound 304]”, the Peptide exchange result is given as “″+++″ (≥50% = +++)”.

For the substance “305 (SIANFSEFYV; listed as Homo sapiens) [compound 305]”, the Peptide exchange result was “″++++″ (≥75% = ++++)”.

In the case of “306 (ALVNVQIPL; listed as Homo sapiens) [compound 306]”, the Peptide exchange result is given as “″+++″ (≥50% = +++)”.

As for “307 (ALPVSLPQI; listed as Homo sapiens) [compound 307]”, the Peptide exchange entry is reported as “″+++″ (≥50% = +++)”.

For “308 (SQYSGQLHEV; listed as Homo sapiens) [compound 308]”, the Peptide exchange result is “″+++″ (≥50% = +++)”.

As to “309 (GLFDGVPTTA; listed as Homo sapiens) [compound 309]”, the Peptide exchange result was “″+++″ (≥50% = +++)”.

As for “310 (FLVDTPLARA; listed as Homo sapiens) [compound 310]”, the Peptide exchange entry is given as “″++++″ (≥75% = ++++)”.

Turning to “311 (RLYTGMHTV; listed as Homo sapiens) [compound 311]”, the Peptide exchange result is given as “″+++″ (≥50% = +++)”.

With “312 (IISDLTIAL; listed as Homo sapiens) [compound 312]”, the Peptide exchange entry is “″+++″ (≥50% = +++)”.

With “313 (VLFDDELLMV; listed as Homo sapiens) [compound 313]”, the Peptide exchange result is “″+++″ (≥50% = +++)”.

For the substance “314 (ALIAEGIALV; listed as Homo sapiens) [compound 314]”, the Peptide exchange result is on record as “″+++″ (≥50% = +++)”.

Regarding “315 (YLQDVVEQA; listed as Homo sapiens) [compound 315]”, the Peptide exchange entry is listed as “″+++″ (≥50% = +++)”.

“316 (ILLERLWYV; listed as Homo sapiens) [compound 316]”: the Peptide exchange result is “″+++″ (≥50% = +++)”.

As for “317 (SLAALVVHV; listed as Homo sapiens) [compound 317]”, the Peptide exchange result is reported as “″+++″ (≥50% = +++)”.

For “318 (GLINTGVLSV; listed as Homo sapiens) [compound 318]”, the Peptide exchange result is “″++″ (≥20% = ++)”.

On to “320 (KMFEFVEPLL; listed as Homo sapiens) [compound 320]”, for which the Peptide exchange result was “″++++″ (≥75% = ++++)”.

Consider “321 (GLFEDVTQPGILL; listed as Homo sapiens) [compound 321]”, for which the Peptide exchange entry was “″++++″ (≥75% = ++++)”.

As to “322 (TLMTSLPAL; listed as Homo sapiens) [compound 322]”, the Peptide exchange result is reported as “″+++″ (≥50% = +++)”.

For the substance “324 (FLYDEIEAEV; listed as Homo sapiens) [compound 324]”, the Peptide exchange entry is recorded as “″+++″ (≥50% = +++)”.

“325 (FIMPATVADATAV; listed as Homo sapiens) [compound 325]”: the Peptide exchange entry is reported as “″+++″ (≥50% = +++)”.

For the substance “326 (FLPEALDFV; listed as Homo sapiens) [compound 326]”, the Peptide exchange entry is recorded as “″+++″ (≥50% = +++)”.

As for “327 (GLAPFTEGISFV; listed as Homo sapiens) [compound 327]”, the Peptide exchange entry is reported as “″+++″ (≥50% = +++)”.

Turning to “328 (ALNDQVFEI; listed as Homo sapiens) [compound 328]”, the Peptide exchange result was “″+++″ (≥50% = +++)”.

As for “329 (FLVTLNNVEV; listed as Homo sapiens) [compound 329]”, the Peptide exchange result is listed as “″++++″ (≥75% = ++++)”.

Take “330 (QLALKVEGV; listed as Homo sapiens) [compound 330]”: the Peptide exchange result is “″+++″ (≥50% = +++)”.

Consider “331 (KVDTVWVNV; listed as Homo sapiens) [compound 331]”, for which the Peptide exchange result was “″+++″ (≥50% = +++)”.

For “332 (YLISELEAA; listed as Homo sapiens) [compound 332]”, the Peptide exchange result is on record as “″+++″ (≥50% = +++)”.

In the case of “333 (FLPDANSSV; listed as Homo sapiens) [compound 333]”, the Peptide exchange entry is on record as “″++″ (≥20% = ++)”.

“334 (TLTKVLVAL; listed as Homo sapiens) [compound 334]”: the Peptide exchange entry was “″+++″ (≥50% = +++)”.

On to “335 (YSLSSVVTV; listed as Homo sapiens) [compound 335]”, for which the Peptide exchange result was “″+++″ (≥50% = +++)”.

Regarding “336 (ILLTAIVQV; listed as Homo sapiens) [compound 336]”, the Peptide exchange result was “″+++″ (≥50% = +++)”.
